# Measured values: paper doi:10.1101/2023.06.15.545071, “POLARIS is a copper-binding peptide required for ethylene signalling control in Arabidopsis” (bioRxiv, 2023)
# B1: ETR1 with a C-terminal HA tag (p35S::ETR1:HA) (receptor, Arabidopsis, UniProt P49333 1-738, looked up)
# chain: MEVCNCIEPQWPADELLMKYQYISDFFIAIAYFSIPLELIYFVKKSAVFPYRWVLVQFGAFIVLCGATHLINLWTFTTHSRTVALVMTTAKVLTAVVSCATALMLVHIIPDLLSVKTRELFLKNKAAELDREMGLIRTQEETGRHVRMLTHEIRSTLDRHTILKTTLVELGRTLALEECALWMPTRTGLELQLSYTLRHQHPVEYTVPIQLPVINQVFGTSRAVKISPNSPVARLRPVSGKYMLGEVVAVRVPLLHLSNFQINDWPELSTKRYALMVLMLPSDSARQWHVHELELVEVVADQVAVALSHAAILEESMRARDLLMEQNVALDLARREAETAIRARNDFLAVMNHEMRTPMHAIIALSSLLQETELTPEQRLMVETILKSSNLLATLMNDVLDLSRLEDGSLQLELGTFNLHTLFREVLNLIKPIAVVKKLPITLNLAPDLPEFVVGDEKRLMQIILNIVGNAVKFSKQGSISVTALVTKSDTRAADFFVVPTGSHFYLRVKVKDSGAGINPQDIPKIFTKFAQTQSLATRSSGGSGLGLAISKRFVNLMEGNIWIESDGLGKGCTAIFDVKLGISERSNESKQSGIPKVPAIPRHSNFTGLKVLVMDENGVSRMVTKGLLVHLGCEVTTVSSNEECLRVVSHEHKVVFMDVCMPGVENYQIALRIHEKFTKQRHQRPLLVALSGNTDKSTKEKCMSFGLDGVLLKPVSLDNIRDVLSDLLEPRVLYEGM
# notes: 'the ETR1 cDNA' in pEarlyGate301; source: Nicotiana benthamiana leaves, Agrobacterium infiltration, transient expression, in protein extract; not shown: HA, C-terminal, kept
# Target: T1, PLS linked to a C-terminal GFP (p35S::PLS:GFP) (Arabidopsis thaliana, UniProt Q8LLV8 1-36)
# T1 construct: POLARIS (PLS) peptide, Arabidopsis thaliana, 36 amino acids; 'the 105-nucleotide PLS gene (without the stop codon)' in pEarlyGate103; source: Nicotiana benthamiana leaves, Agrobacterium infiltration, transient expression, in protein extract; not shown: GFP, C-terminal, kept
# Experiment: co-IP; PLS:GFP and ETR1:HA co-expressed in N. benthamiana leaves, 3 d; anti-GFP beads or anti-HA beads, western blot; extract with 0.5 μM copper sulphate or 2 mM EDTA
# Settings: partners not purified
# T1 sequence (Q8LLV8 whole entry): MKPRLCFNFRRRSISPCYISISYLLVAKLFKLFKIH
binder,measurement,value
B1,fold more co-precipitated with copper ions than with 2 mM EDTA,~3 fold
